In US20210139565A1 (GOVERNMENT OF THE UNITED STATES AS REPRESENTED BY THE …, published 2021):
Substitutions are numbered along the chain they refer to.

T1: Y. pestis YscF protein (Yersinia pestis KIM5, UniProt O68691 1-87)
T1 construct: also called YscF antigen
T1 sequence: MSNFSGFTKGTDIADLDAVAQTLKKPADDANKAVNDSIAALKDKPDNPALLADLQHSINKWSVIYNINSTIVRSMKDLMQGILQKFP

B1: 3yscf15 (VHH)
VHH: QVQLQESGGGLVQAGGSLRLSCAVSGRTFSRYAMGWFRQAPGKEREFVAAISWSGSSTYYADSVKGRFTISRDHAKNVMYLQMNGLKPEDTGVYVCARPAYGLRPPYNYRGQGTQVTVSS
B2: 3yscf24 (VHH)
VHH: QVQLQESGGGLVQAGGSLKLSCTASQRTFSRYSLGWFRQAPGEERVFVAATTWSGISSDYADSVKGRFTISRDNAKNTGYLQMNNLKPEDTGVYYCAAGRSSWFAPWLTPYEYDYWGRGTQVTVSS
B3: 3yscf57 (VHH)
VHH: QVQLQESGGGLVQAGGSLRLSCAASGRTWRAYYMGWFRQAPGKEREFVAVMSRSGGTTSYADSVKGRFTISRDNAKNTVYLQMNNLAPEDTATYYCKAGGGMYGPDLYGMTYWGKGTQVTVSS
B4: 3yscf75 (VHH)
VHH: QVQLQESGGGLVQAGDSRILSCTASGRTFGRPFRYTMGWFRRAPGKEREFVGGITRSGNNIYYSDSVKGRFTISRDNAKNTVYLQMNSLKPEDTAVYYCNADWGWRNYWGQGTQVTVSS
B5: 3yscf124 (VHH)
VHH: QVQLQESGGGLVQAGGSLRLSCVASGRAFSNYAMAWFRQAPGKEREFVAANWRSGGLTDYADSVKGRFTISRDDAKNTVYLQMNSLKPEDTAVYYCAAGGGSRWYGRTTASWYDYWGQGTQVTVSS
B6: 3yscf140 (VHH)
VHH: QVQLQESGGGLVQAGGSLRLACAASGETVDDLAIGWFRQAPGKEREEISCISGSDGSTYYADSLSGRFTISRDNVKNTVYLQMNSLKLEDTAVYYCYAEIYDRRWYRNDYWGQGTQVTVSS
B7: 3yscf142 (VHH)
VHH: QVQLQESGGGLVQAGGSLRLSCAASGRTFSSHAMAWFRQGPGEERQFLAAIRWNGDNIHYSDSAKGRFTISRDLAKNTLYLQMNSLKPEDTAVYYCARGVYDYWGQGTQVTVSS
B8: 1LCRV13 (VHH)
VHH: QVQLQESGGGLVRPGGSLKLSCAASGFTFNWYTMAWYRQVPGEERKMVATITGASGDTKYADSVKGRFTISRDNAKNTVTLQMNSLKPGDTAVYYCHAYLTYDSGSVKGVNYWGQGTQVTVSS
B9: 1LCRV81 (VHH)
VHH: B8 VHH with L11S, R13Q, F68S, Y99C
B10: 1LCRV28 (VHH)
VHH: QVQLQESGGGLVQPGGSLRLSCAASGGTLGYYAIGWFRQAPGKEREAVSCITSSDTSAYYADSAKGRFTISRDNAKNTMYLQMNNLKPEDTAVYYCAAGYYFRDYSDSYYYTGTGMKVWGKGTQVTVSS
B11: 1LCRV31 (VHH)
VHH: QVQLQESGGGLVQPGGSLGLSCAASGSLLNIYAMGWYRQAPGRQRELVATVTSSGTAEYADSVKGRFTISRDNAKNTVYLQMNSLRPEDTGVYYCNAHLRYGDYVRGPPEYNYWGQGTQVTVSS
B12: 1LCRV32 (VHH)
VHH: QVQLQESGGGMVEPGGSLRLSCAASGFRFSSYAMSWVRQAPGKGLERVSAINSDGDKTSYADSVKGRFTISRDNARNTLYLQMSNLKPEDTAVYYCADRDLYCSGSMCKDVLGGARYDFRGQGTQVTVSS
B13: 2LCRV11 (VHH)
VHH: QVQLQESGGGLVQPGGSTRLSCAASGFTLDIYAIGWFRQAPGKEHEGVSWIVGNDGRTYYIDSVKGRFTISRDNAKNTVYLEMNSLKPEDTAVYYCAAKFWPRYYSGRPPVGRDGYDYWGQGTQVTVSS
B14: 3F1 (VHH)
VHH: QVQLQESGGGLVQPGGSLRLSCAASGFTFSTSAMSWIRQPPGKAREVVATITSAGGSISYVNSVKGRFTISRDNAKNTLYLQMNMLKPEDTAVYYCARLVNLAQTGQGTQVTVSS
B15: 3F5 (VHH)
VHH: QVQLQESGGGLVQSGDSLRLSCAASGFTFSNYAMSWVRQAPGKGLEWVSTINSGGGSTSYAYSVKGRFTISRDNAKNTLYLQMNSLKPEDTAVYYCAKTASHIPLSQGTQVTVSS
B16: 3F55 (VHH)
VHH: QVQLQESGGGLVQAGGSLRLSCAVSGMMYIREAIRWYRQAPGKQREWVAFVSSTGNPRYTDSVKGRFTISRDNAKNTVYLQMNSLTPEDTAVYYCNTYLGSRDYWGQGTQVTVSS
B17: 3F85 (VHH)
VHH: B16 VHH with A14P, E32Y, A33T, I34M, F50V, R58H, T60A
B18: 3F61 (VHH)
VHH: QVQLQESGGGLVQPGGSLRLSCSASGIIFSDYALTWYRQAPGKQREWVAQITRSQNINYTGSVKGRFTVSRDNAKNTVHLQMNSLKPEDAAVYYCHAYDGRRPPYWGQGTQVTVSS
B19: 4F6 (VHH)
VHH: B18 VHH with L11S, R19S, A90T, P103R, P104T
B20: 4F59 (VHH)
VHH: QVQLQESGGGLVRPGGSLRLSCEASGTTFRSLVMKWYRQAPGKEREWVAFISSPGDRTRYTEAVKGRFTISRDNAKNALYLQMNGLKPEDTAVYYCNANGIYWGKGTQVTVSS
B21: 3F59 (VHH)
VHH: QVQLQESGGGLVQPGGSLRLSCAASGFTFSSYAMSWVRLAPGKGLEWVSTINIAGGITSYADSVKGRFTISRDNAKNTLYLQMNSLKPEDTAVYYCAKTAANWSAQRGQGTQVTVSS
B22: 4F1 (VHH)
VHH: B18 VHH with R19S, A90T
B23: 4F34 (VHH)
VHH: B18 VHH with L11S, R19S, A90T
B24: 1LCRV47 (VHH)
VHH: QVQLQESGGGLVQPGGSLILSCTISGASLRDRRVTWSRQGPGKSLEIIAVMAPDYGVHYFGSLEGRVAVRGDVVKNTVYLQVNALKPEDTAIYWCSMGNIRGLGTQVTVSS

Each binder was assayed against T1, Y. pestis YscF protein (assay: ELISA of periplasmic extract on YscF antigen and on blank wells, OD405).

Binder | binding result
B1 | binds
B2 | binds
B3 | binds
B4 | binds
B5 | binds
B6 | binds
B7 | binds

Each binder was assayed against T2, Y. pestis LcrV protein (Yersinia pestis KIM5, UniProt P0C7U7 1-326) (assay: SPR, BIACORE T200, LcrV on CM5 chip, kd/ka).
T2 construct: also called LcrV antigen
T2 sequence (P0C7U7 whole entry): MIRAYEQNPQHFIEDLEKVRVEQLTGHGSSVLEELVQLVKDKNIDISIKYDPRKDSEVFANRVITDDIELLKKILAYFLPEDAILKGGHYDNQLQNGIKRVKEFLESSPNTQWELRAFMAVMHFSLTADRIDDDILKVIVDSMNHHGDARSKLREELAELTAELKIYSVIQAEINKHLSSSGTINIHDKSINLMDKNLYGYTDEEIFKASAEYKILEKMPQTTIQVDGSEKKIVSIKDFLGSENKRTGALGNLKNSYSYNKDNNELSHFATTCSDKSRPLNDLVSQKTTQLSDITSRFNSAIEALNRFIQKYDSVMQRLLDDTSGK

Binder | Kd
B8 | 0.00063 nM
B9 | 3.5 nM
B10 | 0.19 nM
B11 | 0.0019 nM
B12 | 22 nM
B13 | 8.2 nM

The binders below were run against T3, Y. pestis F1 protein (Yersinia pestis KIM5, UniProt P26948 22-170) (assay: Microcal (calorimetry)).
T3 construct: also called F1 antigen; Fl
T3 sequence (P26948 22-170 limits assumed): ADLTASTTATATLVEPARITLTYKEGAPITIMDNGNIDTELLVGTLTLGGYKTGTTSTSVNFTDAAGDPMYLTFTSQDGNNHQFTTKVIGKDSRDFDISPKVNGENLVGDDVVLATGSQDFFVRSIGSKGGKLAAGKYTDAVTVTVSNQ

Binder | Kd
B14 | 110 nM
B15 | 83 nM
B16 | 190 nM
B17 | 110 nM
B18 | 290 nM
B19 | 80 nM
B20 | 83 nM

The binders below were run against T2, Y. pestis LcrV protein (assay: Microcal (calorimetry)).

Binder | Kd
B8 | 3.2 nM
B10 | 0.2 nM
B11 | 0.76 nM
B12 | 26 nM

The binders below were run against T3, Y. pestis F1 protein (assay: SPR, BIACORE, F1 immobilized on CM5 chip).

Binder | Kd
B14 | 97 nM
B15 | 47 nM
B16 | 2.2 nM
B17 | 15 nM
B21 | 5.9 nM
B22 | 520 nM
B18 | 68 nM
B19 | 34 nM
B23 | 390 nM
B20 | 27 nM

Each binder was assayed against T2, Y. pestis LcrV protein (assay: SPR, BIACORE T200, LcrV on CM5 chip, 1:1 model).

Binder | koff | kon
B8 | 1.6e-07 s⁻¹ | 250000 M⁻¹ s⁻¹
B9 | 0.00063 s⁻¹ | 180000 M⁻¹ s⁻¹
B10 | 8.1e-05 s⁻¹ | 430000 M⁻¹ s⁻¹
B11 | 3.1e-07 s⁻¹ | 170000 M⁻¹ s⁻¹
B12 | 0.0073 s⁻¹ | 340000 M⁻¹ s⁻¹
B13 | 0.0072 s⁻¹ | 880000 M⁻¹ s⁻¹

The binders below were run against T2, Y. pestis LcrV protein (assay: SPR, BIACORE, LcrV immobilized on CM5 chip).

Binder | Kd
B8 | 0.00063 nM
B9 | 3.5 nM
B10 | 0.19 nM
B11 | 0.0019 nM
B12 | 22 nM
B24 | > 1000 nM
B13 | 8.2 nM
